# Data as given in PMC2120828 (The Journal of Cell Biology, 1996).
# Tests used:
# Test in all cases: two-hybrid
# [1] = biological target: DBDlexA-Cdc42(D118A/C188S) (S. cerevisiae, UniProt P19073 1-191, D118A | C188S)
# [2] = biological target: DBDlexA-Cdc42(Q61L/C188S) (S. cerevisiae, UniProt P19073 1-191, Q61L | C188S)
# DBDlexA-Cdc42(C188S) = DBDlexA-Cdc42(C188S) (S. cerevisiae, UniProt P19073 1-191, C188S)
# Chain of DBDlexA-Cdc42(C188S) (P19073 whole entry C188S): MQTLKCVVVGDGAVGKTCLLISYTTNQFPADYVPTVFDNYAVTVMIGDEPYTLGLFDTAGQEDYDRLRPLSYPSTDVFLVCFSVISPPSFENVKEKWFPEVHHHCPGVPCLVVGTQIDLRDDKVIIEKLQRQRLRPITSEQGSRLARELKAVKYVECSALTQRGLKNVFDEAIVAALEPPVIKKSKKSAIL
# Chain of DBDlexA-Cdc42(D118A/C188S) (P19073 whole entry D118A/C188S): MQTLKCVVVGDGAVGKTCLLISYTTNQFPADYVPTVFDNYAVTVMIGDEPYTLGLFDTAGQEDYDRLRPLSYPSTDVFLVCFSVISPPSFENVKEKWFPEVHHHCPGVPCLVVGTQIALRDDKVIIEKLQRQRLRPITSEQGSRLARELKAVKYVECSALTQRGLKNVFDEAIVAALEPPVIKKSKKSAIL
# Chain of DBDlexA-Cdc42(Q61L/C188S) (P19073 whole entry Q61L/C188S): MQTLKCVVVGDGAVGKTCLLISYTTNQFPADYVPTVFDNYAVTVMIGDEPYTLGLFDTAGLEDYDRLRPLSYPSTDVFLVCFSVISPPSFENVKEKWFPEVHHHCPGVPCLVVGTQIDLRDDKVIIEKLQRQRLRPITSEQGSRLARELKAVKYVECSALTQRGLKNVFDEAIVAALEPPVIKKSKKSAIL
beta-galactosidase activity [1],beta-galactosidase activity [2],beta-galactosidase activity (DBDlexA-Cdc42(C188S)),Binder
< 0.02,–,–,"ADGal4-BOI1(375-557) (domain or fragment, S. cerevisiae) ILDMTEVPNLFADKDIFESPGRAPKPPSYPSPVQPPQSPSFNNRYTNNNARFPPQTTYPPKNKNPTVYSNGLIPNSSTSSDNSTGKFKFPAMNGHDSNSRKTTLTSATIPSINTVNTDESLPAISNISSNATSHHPNRNSVVYNNHKRTESGSSFVDLFNRISMLSPVKSSFDEEETKQPSKA"
< 0.02,230,380,"ADGal4-BOI1(731-980) (domain or fragment, S. cerevisiae) EFKRSPSELTQKSTKSILPRSNAKKQQTSAFTEGIRSITAKESMQTADCSGWMSKKGTGAMGTWKQRFFTLHGTRLSYFTNTNDEKERGLIDITAHRVLPASDDDRLISLYAASLGKGKYCFKLVPPQPGSKKGLTFTEPRVHYFAVENKSEMKAWLSAIIKATIDIDTSVPVISSYATPTIPLSKAQTLLEEARLQTQLRDAEEEEGRDQFGWDDTQNKRNSNYPIEQDQFETSDYLESSAFEYPGGRL"
< 0.02,400,–,"ADGal4-BOI1(375-980) (domain or fragment, S. cerevisiae) ILDMTEVPNLFADKDIFESPGRAPKPPSYPSPVQPPQSPSFNNRYTNNNARFPPQTTYPPKNKNPTVYSNGLIPNSSTSSDNSTGKFKFPAMNGHDSNSRKTTLTSATIPSINTVNTDESLPAISNISSNATSHHPNRNSVVYNNHKRTESGSSFVDLFNRISMLSPVKSSFDEEETKQPSKASRAVFDSARRKSSYGHSRDASLSEMKKHRRNSSILSFFSSKSQSNPTSPTKQTFTIDPAKMTSHSRSQSNSYSHARSQSYSHSRKHSLVTSPLKTSLSPINSKSNIALAHSETPTSSNNKEAVSQPSEGKHKHKHKHKSKHKHKNSSSKDGSSEEKSKKKLFSSTKESFVGSKEFKRSPSELTQKSTKSILPRSNAKKQQTSAFTEGIRSITAKESMQTADCSGWMSKKGTGAMGTWKQRFFTLHGTRLSYFTNTNDEKERGLIDITAHRVLPASDDDRLISLYAASLGKGKYCFKLVPPQPGSKKGLTFTEPRVHYFAVENKSEMKAWLSAIIKATIDIDTSVPVISSYATPTIPLSKAQTLLEEARLQTQLRDAEEEEGRDQFGWDDTQNKRNSNYPIEQDQFETSDYLESSAFEYPGGRL"
